Literature values in US10105305B2, “Compositions and methods for promoting skin regeneration and hair growth” (THE JOHNS HOPKINS UNIVERSITY, priority 2014, dated 2018).

Conditions: in solution; cited from earlier work

## LL-37: 37 amino acid cathelicidin peptide, SEQ ID NO:1, residues 134-170 of hCAP18
  resistance to proteolytic degradation: significantly resistant to proteolytic degradation in solution
